Laboratory results as given in US20110130348.

What was measured:
[1] = molecular target: T1, LAP1 (rationally designed Lp1A acceptor peptide)
T1 chain: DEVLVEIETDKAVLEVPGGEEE

[2] = molecular target: HP1 with LAP2 fused to its C-terminus (LAP2-C)
[3] = molecular target: T2, synthetic LAP2 peptide (Lp1A acceptor peptide 2)
T2 chain: GFEIDKVWYDLDA

[4] = molecular target: LAP2-HP1 fusion protein (LAP2 at the N-terminus of HP1)

B1: Escherichia coli lipoic acid ligase (Lp1A) (protein)
chain: MSTLRLLISDSYDPWFNLAVEECIFRQMPATQRVLFLWRNADTVVIGRAQNPWKECNTRRMEEDNVRLARRSSGGGAVFHDLGNTCFTFMAGKPEYDKTISTSIVLNALNALGVSAEASGRNDLVVKTVEGDRKVSGSAYRETKDRGFHHGTLLLNADLSRLANYLNPDKKKLAAKGITSVRSRVTNLTELLPGITHEQVCEAITEAFFAHYGERVEAEIISPNKTPDLPNFAETFARQSSWEWNFGQAPAFSHLLDERFTWGGVELHFDVEKGHITRAQVFTDSLNPAPLEALAGRLQGCLYRADMLQQECEALLVDFPEQEKELRELSAWMAGAVR
Km (estimate from HPLC measurements) [1]: the Km for LAP1 is estimated to be >200 µM | percent conversion to lipoylated product (HPLC, 50 nM Lp1A, 1 h) [2]: When fused to the C- rather than N-terminus of HP1, the activity of LAP2 decreased somewhat, but was still higher than all other LAP sequences at the N-terminus | Km of Lp1A-catalyzed lipoylation (HPLC, Michaelis-Menten) [3]: 13.32 ± 1.78 µM | catalytic efficiency (kcat/Km) for lipoic acid ligation [3]: The catalytic efficiency (kcat/Km) 0.99 µM^-1 min^-1) | kcat of Lp1A-catalyzed lipoylation (HPLC, Michaelis-Menten) [3]: 0.22 ± 0.01 s⁻¹ | percent conversion to lipoylated product (HPLC, 50 nM Lp1A, 1 h) [4]: As in the cellular assays, LAP2 is the best sequence
